Source: paper PMC7190278 (Cell, 2020)
Positions count from the first letter of the chain named. In names and notes the source's numbering stands. Where no end group is shown, it is not given here. [ ]: non-standard residue; d: D form. pS = N[C@@H](COP(=O)(O)O)C(=O)O

T1: HA-tagged human NPM2 (nucleoplasmin 2) (human, UniProt Q86SE8 1-214)
T1 sequence (looked up): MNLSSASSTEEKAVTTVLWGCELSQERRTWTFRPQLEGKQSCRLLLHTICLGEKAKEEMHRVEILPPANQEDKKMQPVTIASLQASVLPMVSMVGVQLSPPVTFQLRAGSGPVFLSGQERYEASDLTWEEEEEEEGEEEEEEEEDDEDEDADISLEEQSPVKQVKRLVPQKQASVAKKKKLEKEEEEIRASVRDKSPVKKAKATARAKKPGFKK

B1: Protamine 1 (P1), wild type, phosphorylated by SRPK1 (peptide, UniProt P02319 1-51, looked up)
chain: MARYRCCR[pS]KSRSRCRRRRRRCRRRRRRCCRRRRRRCCRRRR[pS]YTIRCKKY
modifications: cysteine pairing not given here
B2: Protamine 1 (P1), wild type, not phosphorylated (peptide, UniProt P02319 1-51, looked up)
chain: MARYRCCRSKSRSRCRRRRRRCRRRRRRCCRRRRRRCCRRRRSYTIRCKKY
B3: Protamine 1 (P1) S9A S43A double mutant (peptide, UniProt P02319 1-51, looked up)
chain: B2 chain with S9A, S43A
B4: Protamine 1 (P1) S43A, not phosphorylated (peptide, UniProt P02319 1-51, looked up)
chain: B2 chain with S43A
B5: Protamine 1 (P1) S9A, phosphorylated by SRPK1 (peptide, UniProt P02319 1-51, looked up)
chain: MARYRCCRAKSRSRCRRRRRRCRRRRRRCCRRRRRRCCRRRR[pS]YTIRCKKY
modifications: cysteine pairing not given here
B6: Protamine 1 (P1) S9A, not phosphorylated (peptide, UniProt P02319 1-51, looked up)
chain: B2 chain with S9A
B7: Protamine 1 (P1) S43A, phosphorylated by SRPK1 (peptide, UniProt P02319 1-51, looked up)
chain: MARYRCCR[pS]KSRSRCRRRRRRCRRRRRRCCRRRRRRCCRRRRAYTIRCKKY
modifications: cysteine pairing not given here

target: T1, HA-tagged human NPM2 (nucleoplasmin 2); assay: pull-down

Row | binding result | Binder
1 | binds | B1
2 | binds | B2
3 | binds | B3
4 | binds | B4
5 | binds | B5
6 | binds | B6
7 | binds | B7

target: HA-tagged human HIRA (human, UniProt P54198 1-1017); assay: pull-down
Sequence (P54198 whole entry): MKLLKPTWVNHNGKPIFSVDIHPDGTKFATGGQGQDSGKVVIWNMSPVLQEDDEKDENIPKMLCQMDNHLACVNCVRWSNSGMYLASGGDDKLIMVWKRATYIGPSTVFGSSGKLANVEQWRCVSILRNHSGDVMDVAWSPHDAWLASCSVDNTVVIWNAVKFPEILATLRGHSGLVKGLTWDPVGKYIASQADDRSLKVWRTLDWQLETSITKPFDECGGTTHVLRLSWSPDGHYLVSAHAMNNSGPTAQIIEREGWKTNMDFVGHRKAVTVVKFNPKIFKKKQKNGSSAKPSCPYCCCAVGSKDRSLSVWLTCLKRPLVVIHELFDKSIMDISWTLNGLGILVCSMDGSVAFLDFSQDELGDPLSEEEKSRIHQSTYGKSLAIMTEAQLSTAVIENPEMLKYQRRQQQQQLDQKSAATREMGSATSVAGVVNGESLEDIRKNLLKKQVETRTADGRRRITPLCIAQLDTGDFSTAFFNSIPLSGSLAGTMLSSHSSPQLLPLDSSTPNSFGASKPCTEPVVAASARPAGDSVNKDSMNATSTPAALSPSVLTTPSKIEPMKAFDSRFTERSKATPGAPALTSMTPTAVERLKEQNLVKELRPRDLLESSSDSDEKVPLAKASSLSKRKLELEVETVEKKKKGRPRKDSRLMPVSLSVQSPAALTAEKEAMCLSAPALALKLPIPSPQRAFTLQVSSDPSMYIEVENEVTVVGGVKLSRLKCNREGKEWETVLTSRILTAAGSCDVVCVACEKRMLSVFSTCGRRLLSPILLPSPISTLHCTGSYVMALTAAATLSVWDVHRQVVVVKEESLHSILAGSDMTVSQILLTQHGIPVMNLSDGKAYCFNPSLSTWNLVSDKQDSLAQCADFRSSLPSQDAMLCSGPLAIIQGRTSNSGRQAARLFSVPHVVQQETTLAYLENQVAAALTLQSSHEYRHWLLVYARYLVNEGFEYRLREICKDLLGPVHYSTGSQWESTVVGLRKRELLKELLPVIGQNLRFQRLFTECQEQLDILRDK

Row | binding result | Binder
8 | binds | B5
9 | binds | B7
